Reference: US20100285131A1 (Amgen, published 2010)

B1: FGF21 truncation mutant 1-173 (ligand)
chain: HPIPDSSPLLQFGGQVRQRYLYTDDAQQTEAHLEIREDGTVGGAADQSPESLLQLKALKPGVIQILGVKTSRFLCQRPDGALYGSLHFDPEACSFRELLLEDGYNVYQSEAHGLPLHLPGNKSPHRDPAPRGPARFLPLPGLPPAPPEPPGILAPQPPDVGSSDPLSMVGPSQ
B2: FGF21 truncation mutant 1-178 (ligand)
chain: HPIPDSSPLLQFGGQVRQRYLYTDDAQQTEAHLEIREDGTVGGAADQSPESLLQLKALKPGVIQILGVKTSRFLCQRPDGALYGSLHFDPEACSFRELLLEDGYNVYQSEAHGLPLHLPGNKSPHRDPAPRGPARFLPLPGLPPAPPEPPGILAPQPPDVGSSDPLSMVGPSQGRSPS
B3: FGF21 truncation mutant 1-166 (ligand)
chain: HPIPDSSPLLQFGGQVRQRYLYTDDAQQTEAHLEIREDGTVGGAADQSPESLLQLKALKPGVIQILGVKTSRFLCQRPDGALYGSLHFDPEACSFRELLLEDGYNVYQSEAHGLPLHLPGNKSPHRDPAPRGPARFLPLPGLPPAPPEPPGILAPQPPDVGSSDPL
B4: FGF21 truncation mutant 2-181 (ligand)
chain: PIPDSSPLLQFGGQVRQRYLYTDDAQQTEAHLEIREDGTVGGAADQSPESLLQLKALKPGVIQILGVKTSRFLCQRPDGALYGSLHFDPEACSFRELLLEDGYNVYQSEAHGLPLHLPGNKSPHRDPAPRGPARFLPLPGLPPAPPEPPGILAPQPPDVGSSDPLSMVGPSQGRSPSYAS
B5: FGF21 truncation mutant 1-176 (ligand)
chain: HPIPDSSPLLQFGGQVRQRYLYTDDAQQTEAHLEIREDGTVGGAADQSPESLLQLKALKPGVIQILGVKTSRFLCQRPDGALYGSLHFDPEACSFRELLLEDGYNVYQSEAHGLPLHLPGNKSPHRDPAPRGPARFLPLPGLPPAPPEPPGILAPQPPDVGSSDPLSMVGPSQGRS
B6: FGF21 truncation mutant 8-181 (ligand)
chain: PLLQFGGQVRQRYLYTDDAQQTEAHLEIREDGTVGGAADQSPESLLQLKALKPGVIQILGVKTSRFLCQRPDGALYGSLHFDPEACSFRELLLEDGYNVYQSEAHGLPLHLPGNKSPHRDPAPRGPARFLPLPGLPPAPPEPPGILAPQPPDVGSSDPLSMVGPSQGRSPSYAS
B7: FGF21 truncation mutant 9-181 (ligand)
chain: LLQFGGQVRQRYLYTDDAQQTEAHLEIREDGTVGGAADQSPESLLQLKALKPGVIQILGVKTSRFLCQRPDGALYGSLHFDPEACSFRELLLEDGYNVYQSEAHGLPLHLPGNKSPHRDPAPRGPARFLPLPGLPPAPPEPPGILAPQPPDVGSSDPLSMVGPSQGRSPSYAS
B8: FGF21 truncation mutant 5-181 (ligand)
chain: DSSPLLQFGGQVRQRYLYTDDAQQTEAHLEIREDGTVGGAADQSPESLLQLKALKPGVIQILGVKTSRFLCQRPDGALYGSLHFDPEACSFRELLLEDGYNVYQSEAHGLPLHLPGNKSPHRDPAPRGPARFLPLPGLPPAPPEPPGILAPQPPDVGSSDPLSMVGPSQGRSPSYAS
B9: FGF21 truncation mutant 1-180 (ligand)
chain: HPIPDSSPLLQFGGQVRQRYLYTDDAQQTEAHLEIREDGTVGGAADQSPESLLQLKALKPGVIQILGVKTSRFLCQRPDGALYGSLHFDPEACSFRELLLEDGYNVYQSEAHGLPLHLPGNKSPHRDPAPRGPARFLPLPGLPPAPPEPPGILAPQPPDVGSSDPLSMVGPSQGRSPSYA
B10: FGF21 truncation mutant 7-181 (ligand)
chain: SPLLQFGGQVRQRYLYTDDAQQTEAHLEIREDGTVGGAADQSPESLLQLKALKPGVIQILGVKTSRFLCQRPDGALYGSLHFDPEACSFRELLLEDGYNVYQSEAHGLPLHLPGNKSPHRDPAPRGPARFLPLPGLPPAPPEPPGILAPQPPDVGSSDPLSMVGPSQGRSPSYAS
B11: FGF21 truncation mutant 1-165 (ligand)
chain: HPIPDSSPLLQFGGQVRQRYLYTDDAQQTEAHLEIREDGTVGGAADQSPESLLQLKALKPGVIQILGVKTSRFLCQRPDGALYGSLHFDPEACSFRELLLEDGYNVYQSEAHGLPLHLPGNKSPHRDPAPRGPARFLPLPGLPPAPPEPPGILAPQPPDVGSSDP
B12: FGF21 truncation mutant 1-167 (ligand)
chain: HPIPDSSPLLQFGGQVRQRYLYTDDAQQTEAHLEIREDGTVGGAADQSPESLLQLKALKPGVIQILGVKTSRFLCQRPDGALYGSLHFDPEACSFRELLLEDGYNVYQSEAHGLPLHLPGNKSPHRDPAPRGPARFLPLPGLPPAPPEPPGILAPQPPDVGSSDPLS
B13: FGF21 truncation mutant 1-174 (ligand)
chain: HPIPDSSPLLQFGGQVRQRYLYTDDAQQTEAHLEIREDGTVGGAADQSPESLLQLKALKPGVIQILGVKTSRFLCQRPDGALYGSLHFDPEACSFRELLLEDGYNVYQSEAHGLPLHLPGNKSPHRDPAPRGPARFLPLPGLPPAPPEPPGILAPQPPDVGSSDPLSMVGPSQG
B14: FGF21 truncation mutant 1-171 (ligand)
chain: HPIPDSSPLLQFGGQVRQRYLYTDDAQQTEAHLEIREDGTVGGAADQSPESLLQLKALKPGVIQILGVKTSRFLCQRPDGALYGSLHFDPEACSFRELLLEDGYNVYQSEAHGLPLHLPGNKSPHRDPAPRGPARFLPLPGLPPAPPEPPGILAPQPPDVGSSDPLSMVGP
B15: FGF21 truncation mutant 1-169 (ligand)
chain: HPIPDSSPLLQFGGQVRQRYLYTDDAQQTEAHLEIREDGTVGGAADQSPESLLQLKALKPGVIQILGVKTSRFLCQRPDGALYGSLHFDPEACSFRELLLEDGYNVYQSEAHGLPLHLPGNKSPHRDPAPRGPARFLPLPGLPPAPPEPPGILAPQPPDVGSSDPLSMV
B16: FGF21 truncation mutant 1-172 (ligand)
chain: HPIPDSSPLLQFGGQVRQRYLYTDDAQQTEAHLEIREDGTVGGAADQSPESLLQLKALKPGVIQILGVKTSRFLCQRPDGALYGSLHFDPEACSFRELLLEDGYNVYQSEAHGLPLHLPGNKSPHRDPAPRGPARFLPLPGLPPAPPEPPGILAPQPPDVGSSDPLSMVGPS
B17: FGF21 truncation mutant 4-181 (ligand)
chain: PDSSPLLQFGGQVRQRYLYTDDAQQTEAHLEIREDGTVGGAADQSPESLLQLKALKPGVIQILGVKTSRFLCQRPDGALYGSLHFDPEACSFRELLLEDGYNVYQSEAHGLPLHLPGNKSPHRDPAPRGPARFLPLPGLPPAPPEPPGILAPQPPDVGSSDPLSMVGPSQGRSPSYAS
B18: FGF21 truncation mutant 3-181 (ligand)
chain: IPDSSPLLQFGGQVRQRYLYTDDAQQTEAHLEIREDGTVGGAADQSPESLLQLKALKPGVIQILGVKTSRFLCQRPDGALYGSLHFDPEACSFRELLLEDGYNVYQSEAHGLPLHLPGNKSPHRDPAPRGPARFLPLPGLPPAPPEPPGILAPQPPDVGSSDPLSMVGPSQGRSPSYAS
B19: FGF21 truncation mutant 1-177 (ligand)
chain: HPIPDSSPLLQFGGQVRQRYLYTDDAQQTEAHLEIREDGTVGGAADQSPESLLQLKALKPGVIQILGVKTSRFLCQRPDGALYGSLHFDPEACSFRELLLEDGYNVYQSEAHGLPLHLPGNKSPHRDPAPRGPARFLPLPGLPPAPPEPPGILAPQPPDVGSSDPLSMVGPSQGRSP
B20: human FGF21 (ligand)
chain: HPIPDSSPLLQFGGQVRQRYLYTDDAQQTEAHLEIREDGTVGGAADQSPESLLQLKALKPGVIQILGVKTSRFLCQRPDGALYGSLHFDPEACSFRELLLEDGYNVYQSEAHGLPLHLPGNKSPHRDPAPRGPARFLPLPGLPPAPPEPPGILAPQPPDVGSSDPLSMVGPSQGRSPSYAS

Target: T1, β-Klotho overexpressed in recombinant human 293T kidney cells
Assay: cell-based or functional assay

Row | Binder | Efficacy (ELK-luciferase, relative to wild-type FGF21) [%]
1 | B1 | 96.1
2 | B2 | 95
3 | B3 | 20
4 | B4 | 112
5 | B5 | 105
6 | B6 | 24.9
7 | B7 | 12.5
8 | B8 | 120
9 | B9 | 93.2
10 | B10 | 74.2
11 | B11 | 10
12 | B12 | 20
13 | B13 | 105
14 | B14 | 113
15 | B15 | 84.9
16 | B16 | 97.5
17 | B17 | 117
18 | B18 | 130
19 | B19 | 112

Target: T1, β-Klotho overexpressed in recombinant …
Assay: cell-based or functional assay
Remark: another data set of the same source

Row | Binder | EC50 (nM), ELK-luciferase [nM] | Efficacy, ELK-luciferase [%]
20 | B20 | 0.4 | 100
